Data taken from IntAct's records for PubMed 21746902.

B1: t-SNARE VTI1 (Saccharomyces cerevisiae), Q04338 (parent)
chain: MSSLLISYESDFKTTLEQAKASLAEAPSQPLSQRNTTLKHVEQQQDELFDLLDQMDVEVNNSIGDASERATYKAKLREWKKTIQSDIKRPLQSLVDSGDRDRLFGDLNASNIDDDQRQQLLSNHAILQKSGDRLKDASRIANETEGIGSQIMMDLRSQRETLENARQTLFQADSYVDKSIKTLKTMTRRLVANKFISYAIIAVLILLILLVLFSKFK
partner: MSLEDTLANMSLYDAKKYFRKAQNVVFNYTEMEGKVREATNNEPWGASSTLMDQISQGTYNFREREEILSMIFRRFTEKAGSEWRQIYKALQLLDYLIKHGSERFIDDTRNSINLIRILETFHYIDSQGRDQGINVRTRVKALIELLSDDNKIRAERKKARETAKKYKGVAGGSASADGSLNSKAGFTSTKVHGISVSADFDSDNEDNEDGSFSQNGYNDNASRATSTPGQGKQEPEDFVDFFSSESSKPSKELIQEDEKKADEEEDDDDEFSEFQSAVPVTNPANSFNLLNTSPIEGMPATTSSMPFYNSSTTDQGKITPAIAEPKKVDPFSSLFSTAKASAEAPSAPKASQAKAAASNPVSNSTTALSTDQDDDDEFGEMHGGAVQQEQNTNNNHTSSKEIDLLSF
B2: Epsin-3 (Saccharomyces cerevisiae), P47160 (parent)
chain: B1 partner

Variants of: B1
Conditions: with ent3_yeast ENT3, P47160

Variant	effect of a mutation on the interaction
D96R	disrupting interaction strength
D46R	disrupting interaction strength
E42R	disrupting interaction strength

Variants of: B2
Conditions: with vti1_yeast VTI1, Q04338

Variant	effect of a mutation on the interaction
R161E	disrupting interaction strength
R157E	disrupting interaction strength
